For test [1], the target named is T1, Recombinant protein comprising the whole extracellular part of human ErbB1 (human, UniProt P00533 25-645).
T1 construct: extracellular domain; also called EGF receptor; EGFR
As to the kind of experiment: SPR (BIAcore 2000), peptide dendrimer immobilized, receptor ECD injected; mean ± SEM. How it is done: (§1) Binding analyses were performed with the surface plasmon resonance (SPR)-based biosensor instrument BIAcore2000 (BIAcore AB, Uppsala, Sweden), at 25° C. using ready-made HBS-EP buffer (BIAcore AB) as running buffer. Peptides were immobilized on the surface of a CM5 sensor chip (BIAcore AB) using an amine coupling kit (Biosensor AB, Uppsala, Sweden) according to the manufacturer's instructions, at a flow rate of 5 μl/min. Briefly, carboxyl groups on the sensor chip surface were activated by injection of 35 μl activation solution followed by injection of peptide (50 μg/ml peptide in HBS-EP buffer, pH 7.4) until the desired level of immobilized peptide was reached. Unreacted peptide was washed out and unreacted activated groups were blocked by the injection of 35 μl 1 M ethanolamine. The final immobilization response was app. 7000-9000 resonance units (RU). […] ErbB receptor proteins were injected at various concentrations at a flow rate of 20 μl/min, and binding to the peptides immobilized on the chip was measured in real-time. […] Data were analyzed by nonlinear curve fitting using the manufacturer' software. […]
(§2) The binding of three Inherbin peptides to all four members of the ErbB receptor family was determined using surface plasmon resonance (SPR) binding analysis (table 1).
On the technique in general: SPR reads the build-up and loss of mass on a sensor chip optically.

In test [2] the target is T2, Human ErbB3 extracellular part fused to Fc of human IgG1 (human, UniProt P21860 20-643).
T2 construct: extracellular domain; also called ErbB3-Fc chimeric protein; not shown: Fc region of human IgG1
As to the kind of experiment: SPR (BIAcore 2000), peptide dendrimer immobilized, receptor ECD-Fc injected; mean ± SEM. The protocol:
(§3) Binding analyses were performed with the surface plasmon resonance (SPR)-based biosensor instrument BIAcore2000 (BIAcore AB, Uppsala, Sweden), at 25° C. using ready-made HBS-EP buffer (BIAcore AB) as running buffer. Peptides were immobilized on the surface of a CM5 sensor chip (BIAcore AB) using an amine coupling kit (Biosensor AB, Uppsala, Sweden) according to the manufacturer's instructions, at a flow rate of 5 μl/min. Briefly, carboxyl groups on the sensor chip surface were activated by injection of 35 μl activation solution followed by injection of peptide (50 μg/ml peptide in HBS-EP buffer, pH 7.4) until the desired level of immobilized peptide was reached. Unreacted peptide was washed out and unreacted activated groups were blocked by the injection of 35 μl 1 M ethanolamine. The final immobilization response was app. 7000-9000 resonance units (RU). A reference surface was generated simultaneously under the same conditions but without peptide injection and used as a blank chip control. ErbB receptor proteins were injected at various concentrations at a flow rate of 20 μl/min, and binding to the peptides immobilized on the chip was measured in real-time. The curve corresponding to the difference between signals on flow cells with immobilized peptide and the signal on the blank flow cell was used for analysis. Each sensorgram consists of an association phase (the first 320 seconds), reflecting binding of the injected receptor to the peptide, and a dissociation phase (app. 300 seconds), during which running buffer is passed over the chip and the bound receptor is being washed off. Data were analyzed by nonlinear curve fitting using the manufacturer' software. The recombinant protein comprising the whole extracellular part of human ErbB1 (also termed the EGF receptor, EGFR) was purchased from Research Diagnostics (Concord, Mass., USA). Recombinant proteins comprising the Fc region of human IgG₁ and the Fc protein fused to the extracellular parts of human ErbB2, ErbB3 or ErbB4 were purchased from R&D Systems Europe (Abingdon, UK).
as §2

Test [3] has as its target T3, Human ErbB4 extracellular part fused to Fc of human IgG1 (human, UniProt Q15303 26-651).
T3 construct: extracellular domain; also called ErbB4-Fc chimeric protein; not shown: Fc region of human IgG1
T3 sequence (looked up): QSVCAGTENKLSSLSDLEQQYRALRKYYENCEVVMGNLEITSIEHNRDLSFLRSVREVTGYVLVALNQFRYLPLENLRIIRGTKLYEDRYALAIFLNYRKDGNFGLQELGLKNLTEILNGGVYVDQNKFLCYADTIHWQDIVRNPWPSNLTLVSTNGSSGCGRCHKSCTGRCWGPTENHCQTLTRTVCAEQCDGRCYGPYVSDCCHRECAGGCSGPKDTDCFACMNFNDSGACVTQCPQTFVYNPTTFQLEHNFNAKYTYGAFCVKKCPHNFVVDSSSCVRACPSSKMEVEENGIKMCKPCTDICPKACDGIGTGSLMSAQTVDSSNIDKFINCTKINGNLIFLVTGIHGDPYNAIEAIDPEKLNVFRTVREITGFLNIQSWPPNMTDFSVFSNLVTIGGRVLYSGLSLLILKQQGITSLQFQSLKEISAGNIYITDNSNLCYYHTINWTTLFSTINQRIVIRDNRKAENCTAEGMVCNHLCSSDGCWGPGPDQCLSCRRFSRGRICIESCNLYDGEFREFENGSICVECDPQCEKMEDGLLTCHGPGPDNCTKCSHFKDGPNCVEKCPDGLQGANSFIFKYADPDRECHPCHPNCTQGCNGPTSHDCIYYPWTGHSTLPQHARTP
Described as above. The protocol: as §3, §2

Test [4] concerns the target T4, Human ErbB2 extracellular part fused to Fc of human IgG1 (human, UniProt P04626 23-652).
T4 construct: extracellular domain; also called ErbB2-Fc chimeric protein; not shown: Fc region of human IgG1
Described as above. The protocol:
as §3, §2

Test [5] has as its target T3, Human ErbB4 extracellular part fused to …. As to the kind of experiment: SPR (BIAcore 2000), peptide immobilized on CM5 chip, receptor protein injected. The protocol: as §3, §2
Test [6] has as its target T4, Human ErbB2 extracellular part fused to …. The test is described as above. How it is done:
as §3, §2

For test [7], the target named is T2, Human ErbB3 extracellular part fused to …. As to the kind of experiment: SPR (BIAcore 2000), peptide dendrimer immobilized, receptor ECD-Fc injected; mean ± SEM, SEM 8e-9 in r11c2. How it is done:
as §1, §2

The target in test [8] is T1, Recombinant protein comprising the …. As to the kind of experiment: SPR (BIAcore 2000), peptide dendrimer immobilized, receptor ECD injected; mean ± SEM, SEM 4.9e-9 in r8c2. How it is done: as §1, §2

Where no end group is shown, it is not given here.

T2 sequence (P21860 20-643): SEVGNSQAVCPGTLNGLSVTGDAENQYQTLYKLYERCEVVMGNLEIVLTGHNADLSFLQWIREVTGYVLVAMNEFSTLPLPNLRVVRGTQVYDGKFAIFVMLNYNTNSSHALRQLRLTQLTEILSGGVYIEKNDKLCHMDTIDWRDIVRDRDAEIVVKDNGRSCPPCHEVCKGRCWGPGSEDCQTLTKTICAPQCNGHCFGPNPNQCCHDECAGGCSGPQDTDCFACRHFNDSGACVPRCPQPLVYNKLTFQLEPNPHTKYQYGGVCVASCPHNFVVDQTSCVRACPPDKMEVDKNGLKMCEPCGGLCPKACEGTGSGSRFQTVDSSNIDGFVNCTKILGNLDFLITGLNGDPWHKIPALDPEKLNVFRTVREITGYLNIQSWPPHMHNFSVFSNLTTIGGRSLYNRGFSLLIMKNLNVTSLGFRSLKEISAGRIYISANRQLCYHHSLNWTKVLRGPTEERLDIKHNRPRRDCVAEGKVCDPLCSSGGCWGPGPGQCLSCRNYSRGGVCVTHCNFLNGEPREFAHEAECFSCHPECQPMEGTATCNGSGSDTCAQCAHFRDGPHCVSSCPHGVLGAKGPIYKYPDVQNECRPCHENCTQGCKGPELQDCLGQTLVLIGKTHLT

Broadly, the Kd is the constant that tells how readily two partners part at equilibrium. As to FVYNPTTFQLEMNFNAK (also: tetrameric dendrimer: four monomers coupled to a lysine backbone, also called 4DL) [Inherbin4 peptide, tetrameric dendrimer], the Kd is 297 nM in test [1], 19.9 nM in test [2], 90.4 nM in test [3] and 43 nM in test [4].
Turning to LVYNKLTFQLEPNPHTK (also: tetrameric dendrimer: four monomers coupled to a lysine backbone, also called 3DL) [Inherbin3d, tetrameric dendrimer of the Inherbin3 peptide], the results for the Kd in test [1] and in test [2] were 70 nM and 17.9 nM, respectively. The binding result in test [5] and in test [6] was “no binding (tested: 32 µM (concentration given for FIG. 1))” in each case.

B1: Inherbin1 peptide, tetrameric dendrimer (peptide)
peptide: MLYNPTTYQMDVNPEGK
modifications: also: tetrameric dendrimer: four monomers coupled to a lysine backbone
notes: It was immobilized on a CM5 chip by amine coupling; also called 1DL
On to B1, for which the Kd in test [7] amounted to 49 nM; in test [8], 13.6 nM. The binding result in test [5] and in test [6] was “no binding” in each case.

Values taken from patent publication US20090092617A1 (K BENHAVNS UNIVERSITET, published 2009).
